Results published in patent publication US20170247677A1.
One block for each substance: values may come before it.

Key:
[1] = molecular target: Factor Va (UniProt P12259)
[2] = molecular target: FXa^I16M (human) (UniProt P00742); experiment: cell-based or functional assay
[3] = molecular target: FXa^I16T (human) (UniProt P00742); experiment: cell-based or functional assay
[4] = molecular target: FXa^V17M (human) (UniProt P00742); experiment: cell-based or functional assay
[5] = molecular target: FXa^V17S (human) (UniProt P00742); experiment: cell-based or functional assay
[6] = molecular target: FXa^V17T (human) (UniProt P00742); experiment: cell-based or functional assay
[7] = molecular target: wild-type Factor Xa (human) (UniProt P00742); experiment: cell-based or functional assay

Sequence of UniProt P12259 (P12259 29-2224): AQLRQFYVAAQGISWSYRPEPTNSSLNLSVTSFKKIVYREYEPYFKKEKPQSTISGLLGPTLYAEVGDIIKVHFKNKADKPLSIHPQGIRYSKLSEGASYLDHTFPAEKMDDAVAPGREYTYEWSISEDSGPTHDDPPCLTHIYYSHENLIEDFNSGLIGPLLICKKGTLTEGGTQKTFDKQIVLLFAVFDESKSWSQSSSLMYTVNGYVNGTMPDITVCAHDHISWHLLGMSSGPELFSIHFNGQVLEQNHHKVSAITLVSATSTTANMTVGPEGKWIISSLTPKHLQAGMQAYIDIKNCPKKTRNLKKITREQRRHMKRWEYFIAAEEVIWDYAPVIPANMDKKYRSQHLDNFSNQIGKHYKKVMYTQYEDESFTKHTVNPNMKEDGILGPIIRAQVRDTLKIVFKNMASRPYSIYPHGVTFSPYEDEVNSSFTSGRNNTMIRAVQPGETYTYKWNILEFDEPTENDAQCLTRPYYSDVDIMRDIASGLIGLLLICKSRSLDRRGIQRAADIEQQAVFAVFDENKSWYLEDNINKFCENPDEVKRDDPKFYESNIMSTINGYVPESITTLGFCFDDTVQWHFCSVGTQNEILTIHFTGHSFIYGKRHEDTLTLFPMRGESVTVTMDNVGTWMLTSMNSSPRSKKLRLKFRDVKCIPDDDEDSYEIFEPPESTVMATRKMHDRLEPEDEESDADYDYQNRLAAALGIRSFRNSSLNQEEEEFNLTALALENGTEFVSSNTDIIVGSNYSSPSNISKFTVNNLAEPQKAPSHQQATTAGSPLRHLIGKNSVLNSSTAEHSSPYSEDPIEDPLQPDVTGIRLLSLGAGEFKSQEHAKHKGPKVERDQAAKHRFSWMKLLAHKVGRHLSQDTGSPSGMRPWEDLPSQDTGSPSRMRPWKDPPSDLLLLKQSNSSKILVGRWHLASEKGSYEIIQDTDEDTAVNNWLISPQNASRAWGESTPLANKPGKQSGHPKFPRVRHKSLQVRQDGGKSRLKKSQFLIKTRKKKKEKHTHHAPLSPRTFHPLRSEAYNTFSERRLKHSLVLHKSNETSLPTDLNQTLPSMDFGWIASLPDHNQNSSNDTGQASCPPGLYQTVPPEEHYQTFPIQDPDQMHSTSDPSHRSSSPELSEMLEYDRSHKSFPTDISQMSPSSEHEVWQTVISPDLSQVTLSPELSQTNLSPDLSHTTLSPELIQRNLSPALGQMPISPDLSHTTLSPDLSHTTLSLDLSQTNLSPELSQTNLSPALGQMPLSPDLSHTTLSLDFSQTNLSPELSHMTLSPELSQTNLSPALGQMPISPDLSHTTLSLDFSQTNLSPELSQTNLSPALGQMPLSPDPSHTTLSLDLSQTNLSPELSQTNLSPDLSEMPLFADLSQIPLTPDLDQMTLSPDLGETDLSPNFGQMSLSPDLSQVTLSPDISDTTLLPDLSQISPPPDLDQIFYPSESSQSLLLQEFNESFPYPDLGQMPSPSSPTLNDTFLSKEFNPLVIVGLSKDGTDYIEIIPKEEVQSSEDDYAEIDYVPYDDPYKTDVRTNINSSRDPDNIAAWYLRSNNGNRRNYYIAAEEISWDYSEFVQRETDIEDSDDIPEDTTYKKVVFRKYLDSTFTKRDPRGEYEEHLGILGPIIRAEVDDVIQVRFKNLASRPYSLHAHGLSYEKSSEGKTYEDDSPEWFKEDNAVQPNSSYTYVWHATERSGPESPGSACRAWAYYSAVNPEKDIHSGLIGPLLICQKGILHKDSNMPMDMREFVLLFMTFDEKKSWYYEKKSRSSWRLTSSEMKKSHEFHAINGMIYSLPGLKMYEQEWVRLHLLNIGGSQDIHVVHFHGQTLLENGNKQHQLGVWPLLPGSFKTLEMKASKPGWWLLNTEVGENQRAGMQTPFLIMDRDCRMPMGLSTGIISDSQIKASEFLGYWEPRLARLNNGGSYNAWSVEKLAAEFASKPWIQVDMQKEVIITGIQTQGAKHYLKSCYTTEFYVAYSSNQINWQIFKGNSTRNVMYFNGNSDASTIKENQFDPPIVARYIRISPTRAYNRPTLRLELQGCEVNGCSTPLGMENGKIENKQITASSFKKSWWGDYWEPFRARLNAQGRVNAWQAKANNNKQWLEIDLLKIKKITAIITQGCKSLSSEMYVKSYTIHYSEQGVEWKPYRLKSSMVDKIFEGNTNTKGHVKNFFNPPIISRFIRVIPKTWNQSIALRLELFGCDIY

Substance: FXa^I16L
kinetics of prothrombin activation in the presence of FVa and anionic membranes (PCPS) [1]: demonstrated faster than wild-type kinetics

Substance: FXa^I16M
kinetics of prothrombin activation in the presence of FVa and anionic membranes (PCPS) [1]: displayed similar to wild-type kinetics

Substance: FXa^V17M
kinetics of prothrombin activation in the presence of FVa and anionic membranes (PCPS) [1]: demonstrated faster than wild-type kinetics

Fold Difference (rate constant for inhibition by antithrombin, against wtFXa) [2]: 40 fold
Fold Difference (rate constant for inhibition by antithrombin, against wtFXa) [3]: > 100 fold
Fold Difference (rate constant for inhibition by antithrombin, against wtFXa) [4]: 14 fold
Fold Difference (rate constant for inhibition by antithrombin, against wtFXa) [5]: > 100 fold
Fold Difference (rate constant for inhibition by antithrombin, against wtFXa) [6]: 70 fold
Fold Difference (rate constant for inhibition by antithrombin, against wtFXa) [7]: 1 fold
Substance: antithrombin III (from UniProt P01008 33-464)
